B1: AptC3-VI (structured_RNA)
RNA: GGGAGAAUUCAACUGCCAUCUAACCACGUAGUAAUACGGUAUGAUCCAGUUUUAAUUCUAACCAGACUGUUCAGAUGACUACAAGCUUCUGGACUCGGU
modifications: 2'-fluoro pyrimidines
B2: AptC3-III (structured_RNA)
RNA: GGGAGAAUUCAACUGCCAUCUACAGCCCCUCGGCCGCGUUCAGCGUCUAACCUUGGGCUGUAUAGAAAGGGUUUCCAGACUACAAGCUUCUGGACUCGGU
modifications: 2'-fluoro pyrimidines
B3: AptC3-IV (structured_RNA)
RNA: GGGAGAAUUCAACUGCCAUCUAGUUGCAAAAACAUGAGGAUAGCAAAGUACCAGUGCAACUAACAAGGAAAAGAAGACGGACUACAAGCUUCUGGACUCGGU
modifications: 2'-fluoro pyrimidines

Tests used:
[1] = target: complement C3b (human, UniProt P01024;P01024 23-667;749-1663); test: EMSA; 250 nM protein; 20 mM HEPES pH 7.4, 150 mM NaCl, 10 mM MgCl2, BSA and yeast RNA 1 ug/20 uL each, 45 min at 37 C; settings: protein: native; copies: 1;1; label: 32P
[2] = target: complement C3 (human, UniProt P01024;P01024 23-667;672-1663); test: filter binding; 20 mM HEPES pH 7.4, 150 mM NaCl, 10 mM MgCl2, BSA and yeast RNA 1 ug/20 uL each, 45 min at 37 C; settings: protein: native; copies: 1;1; label: 32P
[3] = target: T1, complement iC3b (human, UniProt P01024;P01024;P01024 23-667;749-1303;1321-1663); test: as above; settings: protein: native; copies: 1;1;1; label: 32P
[4] = target: T1, complement iC3b; test: EMSA; 250 nM protein; 20 mM HEPES pH 7.4, 150 mM NaCl, 10 mM MgCl2, BSA and yeast RNA 1 ug/20 uL each, 45 min at 37 C; settings: protein: native; copies: 1;1;1; label: 32P

T1 sequence (P01024 23-667, chain 1 of 3): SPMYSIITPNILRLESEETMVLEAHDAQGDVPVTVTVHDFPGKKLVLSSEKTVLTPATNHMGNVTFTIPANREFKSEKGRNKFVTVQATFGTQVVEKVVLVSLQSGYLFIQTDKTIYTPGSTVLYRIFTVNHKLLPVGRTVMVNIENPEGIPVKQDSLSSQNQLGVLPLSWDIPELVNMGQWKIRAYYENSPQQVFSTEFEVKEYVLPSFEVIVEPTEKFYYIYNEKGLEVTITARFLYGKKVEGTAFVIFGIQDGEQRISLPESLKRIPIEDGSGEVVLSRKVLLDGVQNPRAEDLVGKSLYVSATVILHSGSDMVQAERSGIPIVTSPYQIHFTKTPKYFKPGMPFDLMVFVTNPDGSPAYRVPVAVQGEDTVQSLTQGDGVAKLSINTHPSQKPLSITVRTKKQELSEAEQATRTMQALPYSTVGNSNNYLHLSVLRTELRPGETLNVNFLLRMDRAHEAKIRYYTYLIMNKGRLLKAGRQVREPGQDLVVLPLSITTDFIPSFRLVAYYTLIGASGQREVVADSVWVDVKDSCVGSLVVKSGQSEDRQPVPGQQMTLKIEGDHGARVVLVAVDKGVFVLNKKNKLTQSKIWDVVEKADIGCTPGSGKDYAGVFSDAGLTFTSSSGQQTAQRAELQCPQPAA
T1 sequence (P01024 749-1303, chain 2 of 3): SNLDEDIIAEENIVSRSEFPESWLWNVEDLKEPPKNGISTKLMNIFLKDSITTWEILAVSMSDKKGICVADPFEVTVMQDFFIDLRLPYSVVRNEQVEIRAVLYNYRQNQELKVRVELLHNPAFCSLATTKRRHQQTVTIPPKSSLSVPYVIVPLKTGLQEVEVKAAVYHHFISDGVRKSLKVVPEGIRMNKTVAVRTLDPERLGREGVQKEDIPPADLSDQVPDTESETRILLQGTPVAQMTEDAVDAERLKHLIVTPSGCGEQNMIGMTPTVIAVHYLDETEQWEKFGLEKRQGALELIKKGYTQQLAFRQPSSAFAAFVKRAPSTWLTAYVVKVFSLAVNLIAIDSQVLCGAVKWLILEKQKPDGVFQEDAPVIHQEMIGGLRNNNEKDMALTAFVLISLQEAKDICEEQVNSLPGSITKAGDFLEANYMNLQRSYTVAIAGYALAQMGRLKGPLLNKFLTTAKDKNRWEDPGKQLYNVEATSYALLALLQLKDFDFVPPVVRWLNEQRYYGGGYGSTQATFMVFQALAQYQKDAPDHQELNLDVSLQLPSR
T1 sequence (P01024 1321-1663, chain 3 of 3): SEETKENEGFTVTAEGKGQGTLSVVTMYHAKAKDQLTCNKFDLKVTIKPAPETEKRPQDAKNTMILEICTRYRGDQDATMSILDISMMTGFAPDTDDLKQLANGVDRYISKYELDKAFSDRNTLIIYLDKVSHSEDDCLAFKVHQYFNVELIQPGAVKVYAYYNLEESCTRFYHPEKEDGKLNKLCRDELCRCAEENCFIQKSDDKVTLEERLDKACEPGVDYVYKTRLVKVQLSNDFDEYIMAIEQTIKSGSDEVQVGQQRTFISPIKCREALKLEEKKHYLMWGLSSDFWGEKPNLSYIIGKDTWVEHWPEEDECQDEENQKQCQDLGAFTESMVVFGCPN
complement C3b, sequence (P01024 23-667, chain 1 of 2): as the sequence (P01024 23-667, chain 1 of 3) above
complement C3b, sequence (P01024 749-1663, chain 2 of 2): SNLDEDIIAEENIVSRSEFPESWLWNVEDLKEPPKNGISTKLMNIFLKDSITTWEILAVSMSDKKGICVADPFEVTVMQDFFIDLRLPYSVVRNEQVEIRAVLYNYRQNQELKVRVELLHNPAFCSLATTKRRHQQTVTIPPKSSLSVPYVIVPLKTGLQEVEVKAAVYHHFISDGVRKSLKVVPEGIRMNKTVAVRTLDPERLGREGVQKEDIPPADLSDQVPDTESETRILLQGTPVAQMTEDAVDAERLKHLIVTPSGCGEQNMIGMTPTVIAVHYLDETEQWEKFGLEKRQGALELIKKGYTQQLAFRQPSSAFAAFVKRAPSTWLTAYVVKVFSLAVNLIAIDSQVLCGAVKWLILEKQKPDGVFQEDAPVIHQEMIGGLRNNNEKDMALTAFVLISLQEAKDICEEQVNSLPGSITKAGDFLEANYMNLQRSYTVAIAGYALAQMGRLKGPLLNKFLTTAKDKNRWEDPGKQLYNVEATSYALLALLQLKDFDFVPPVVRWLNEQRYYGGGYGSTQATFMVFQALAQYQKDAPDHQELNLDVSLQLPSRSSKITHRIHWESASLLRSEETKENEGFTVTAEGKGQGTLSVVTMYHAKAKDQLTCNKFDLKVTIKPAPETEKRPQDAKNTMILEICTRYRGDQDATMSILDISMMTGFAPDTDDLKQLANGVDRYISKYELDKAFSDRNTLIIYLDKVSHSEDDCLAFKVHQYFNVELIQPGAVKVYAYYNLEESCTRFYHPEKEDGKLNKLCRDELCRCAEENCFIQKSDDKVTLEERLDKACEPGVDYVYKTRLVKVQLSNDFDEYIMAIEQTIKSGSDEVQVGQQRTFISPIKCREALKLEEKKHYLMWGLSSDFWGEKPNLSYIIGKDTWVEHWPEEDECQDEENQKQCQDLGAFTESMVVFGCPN
complement C3, sequence (P01024 23-667, chain 1 of 2): as the sequence (P01024 23-667, chain 1 of 3) above
complement C3, sequence (P01024 672-1663, chain 2 of 2): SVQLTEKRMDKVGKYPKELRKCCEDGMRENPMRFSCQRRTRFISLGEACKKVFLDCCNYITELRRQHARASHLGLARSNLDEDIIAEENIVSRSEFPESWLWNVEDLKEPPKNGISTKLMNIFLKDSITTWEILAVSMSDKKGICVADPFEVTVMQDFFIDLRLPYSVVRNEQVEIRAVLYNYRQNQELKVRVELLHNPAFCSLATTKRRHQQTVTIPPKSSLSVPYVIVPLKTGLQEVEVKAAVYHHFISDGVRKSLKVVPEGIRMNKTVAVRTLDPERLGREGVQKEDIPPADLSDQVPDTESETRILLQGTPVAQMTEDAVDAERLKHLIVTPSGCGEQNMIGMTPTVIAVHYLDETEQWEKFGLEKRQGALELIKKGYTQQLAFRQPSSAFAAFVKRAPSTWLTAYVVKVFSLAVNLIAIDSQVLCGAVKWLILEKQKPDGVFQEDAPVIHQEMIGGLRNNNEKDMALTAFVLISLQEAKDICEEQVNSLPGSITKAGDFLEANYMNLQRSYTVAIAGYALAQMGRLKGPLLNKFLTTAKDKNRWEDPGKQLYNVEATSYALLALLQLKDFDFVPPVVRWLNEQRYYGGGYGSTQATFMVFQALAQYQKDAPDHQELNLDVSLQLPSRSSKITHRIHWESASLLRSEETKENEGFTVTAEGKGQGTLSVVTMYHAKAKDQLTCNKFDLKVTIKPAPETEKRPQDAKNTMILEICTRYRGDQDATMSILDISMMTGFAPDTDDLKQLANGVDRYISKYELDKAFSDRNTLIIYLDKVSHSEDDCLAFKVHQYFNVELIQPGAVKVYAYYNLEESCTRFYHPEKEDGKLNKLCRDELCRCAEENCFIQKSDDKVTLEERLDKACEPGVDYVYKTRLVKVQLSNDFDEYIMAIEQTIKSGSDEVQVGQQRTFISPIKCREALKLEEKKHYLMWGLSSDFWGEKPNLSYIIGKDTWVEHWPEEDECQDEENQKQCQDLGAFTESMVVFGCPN

| Binder | binding result [1] | Kd [2] [nM] | Kd [3] [nM] | binding result [4] |
| --- | --- | --- | --- | --- |
| B1 | binds | – | – | – |
| B2 | – | 17 | 14.5 | – |
| B3 | binds | – | – | binds |

— publication PMC8775132, “Complement-Mediated Selective Tumor Cell Lysis Enabled by Bi-Functional RNA Aptamers”
